Where “and” joins values, the source holds several entries; their conditions need not be identical. Identical values can stand only once.
B3: DRB7.2 (M1-V190) (natural protein, A. thaliana, UniProt F4JHB3 1-190, looked up)
chain: MDLPPPESSSNPISSFSVAQKRMLLQRCESKFKIRKLNDTVEEDNVTQMEPNFTLENTLVSEPEADLRPHTTEPTTEEETQRSSAKSQLYNLCSVRHWKAPLYEYIAEGPCHMKIFTGKVTVEMKEDSRITVLECFGNPQYKKKIAAEQAAEAALWYLKNVGYTLQTEKASGRKGRSKPISKMMVTGEPV
notes: DRB7.2, A. thaliana, UniProt F4JHB3, residues M1-V190; Perdeuterated and U-15N labelled for NMR; Further cloning details are in Paturi & Deshmukh, 2023; also called full-length DRB7.2
B5: DRB4 (1-355) (natural protein, A. thaliana, UniProt Q8H1D4 1-355, looked up)
chain: MDHVYKGQLQAYALQHNLELPVYANEREGPPHAPRFRCNVTFCGQTFQSSEFFPTLKSAEHAAAKIAVASLTPQSPEGIDVAYKNLLQEIAQKESSLLPFYATATSGPSHAPTFTSTVEFAGKVFSGEEAKTKKLAEMSAAKVAFMSIKNGNSNQTGSPTLPSERQEDVNSNVKSSPQEIHSQPSSKVVMTPDTPSKGIKVNEDEFPDLHDAPASNAKEINVALNEPENPTNDGTLSALTTDGMKMNIASSSLPIPHNPTNVITLNAPAANGIKRNIAACSSWMPQNPTNDGSETSSCVVDESEKKKLIMGTGHLSIPTGQHVVCRPWNPEITLPQDAEMLFRDDKFIAYRLVKP
notes: DRB4, A. thaliana, UniProt Q8H1D4, residues 1-355; source: cloned, expressed and purified as described (Chiliveri et al, 2017)

Experiments:
[1] = target: T1, DRB4D3 (Arabidopsis thaliana, UniProt Q8H1D4 294-355); test: EMSA; EMSA: 50 mM potassium phosphate pH 7.0, 50 mM NaCl, 50 mM Na2SO4, 2 mM DTT; 40 bp RNA at 750 nM, 30 min, room temperature; 32P 80 bp dsRNA at 1 nM, 1 h, 4 C; conditions: protein: recombinant; Methods text mentions 1 nt 3' overhang
T1 sequence: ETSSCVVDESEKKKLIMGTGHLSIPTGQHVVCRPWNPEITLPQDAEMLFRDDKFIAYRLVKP

[2] = target: T2, DRB7.2 (Arabidopsis thaliana, UniProt F4JHB3 1-190); test: EMSA; saturation at ~2 uM; 1 nM RNA, 4 C; EMSA: 50 mM potassium phosphate pH 7.0, 50 mM NaCl, 50 mM Na2SO4, 2 mM DTT; 40 bp RNA at 750 nM, 30 min, room temperature; 32P 80 bp dsRNA at 1 nM, 1 h, 4 C; conditions: protein: recombinant; tags: His6 tag with TEV cleavage (pETtrx-1b); Methods text mentions 1 nt 3' overhang
T2 sequence: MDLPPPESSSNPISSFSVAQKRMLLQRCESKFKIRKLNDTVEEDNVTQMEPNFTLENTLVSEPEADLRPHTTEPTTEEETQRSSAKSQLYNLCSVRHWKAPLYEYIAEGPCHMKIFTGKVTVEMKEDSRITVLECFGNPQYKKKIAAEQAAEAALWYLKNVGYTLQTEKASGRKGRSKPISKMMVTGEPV

[3] = target: T3, DRB7.2M (Arabidopsis thaliana, UniProt F4JHB3 71-162); test: as above; conditions: protein: recombinant; tags: His6 tag with TEV cleavage (pETtrx-1b); Methods text mentions 1 nt 3' overhang
T3 sequence: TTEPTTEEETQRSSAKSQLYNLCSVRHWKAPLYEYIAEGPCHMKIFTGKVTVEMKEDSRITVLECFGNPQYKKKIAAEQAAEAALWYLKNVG

[4] = target: T4, DRB7.2M;DRB4D3 (Arabidopsis thaliana;Arabidopsis …, UniProt F4JHB3;Q8H1D4 71-162;294-355, |); test: EMSA; saturation at ~2 uM; 1 nM RNA, 4 C; ternary complex also in Fig. S11D; EMSA: 50 mM potassium phosphate pH 7.0, 50 mM NaCl, 50 mM Na2SO4, 2 mM DTT; 40 bp RNA at 750 nM, 30 min, room temperature; 32P 80 bp dsRNA at 1 nM, 1 h, 4 C; conditions: protein: recombinant;recombinant; tags: His6 tag with TEV cleavage (pETtrx-1b);; copies: 1;1; Methods text mentions 1 nt 3' overhang
T4 sequence 1: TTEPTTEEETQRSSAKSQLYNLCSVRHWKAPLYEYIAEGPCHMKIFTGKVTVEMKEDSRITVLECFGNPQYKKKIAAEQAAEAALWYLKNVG
T4 sequence 2: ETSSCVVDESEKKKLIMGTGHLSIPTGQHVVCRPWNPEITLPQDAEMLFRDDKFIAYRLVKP

[5] = target: T5, DRB7.2M (T71-G162) (A. thaliana, UniProt F4JHB3 71-162); test: MALDI-TOF MS; samples after SEC; 0.5 mg/mL, 2 mg/mL and 5 mg/mL; conditions: both partners purified
T5 construct: DRB7.2, A. thaliana, UniProt F4JHB3, residues T71-G162 (dsRBD S84-G162 with the N-terminal flanking residues T71-S83); Isotope labelled (15N, 13C, 2H) or perdeuterated for NMR; Further cloning details are in Paturi & Deshmukh, 2023; also called dsRBD region of DRB7.2; DRB7.2 dsRBD
T5 sequence (looked up): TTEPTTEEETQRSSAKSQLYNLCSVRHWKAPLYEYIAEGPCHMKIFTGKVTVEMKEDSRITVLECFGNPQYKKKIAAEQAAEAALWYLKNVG

[6] = target: T5, DRB7.2M (T71-G162); test: ITC; DRB4D3 and the preformed complex of DRB7.2M:80 bp dsRNA; one site binding model; conditions: both partners purified
[7] = target: B3; test: ITC; DRB4 constructs (200 μM, syringe) injected into DRB7.2 or DRB7.2M (20 μM, cell); 25 °C; 50 mM potassium phosphate pH 7.0, 50 mM NaCl, 50 mM Na2SO4, 2 mM DTT; conditions: both partners purified
[8] = target: T5, DRB7.2M (T71-G162); test: as above; conditions: both partners purified
[9] = target: B5; test: as above; conditions: both partners purified
[10] = target: T6, DRB4C (154-355) (A. thaliana, UniProt Q8H1D4 154-355); test: as above; conditions: both partners purified
T6 construct: DRB4, A. thaliana, UniProt Q8H1D4, residues 154-355 (flexible segment N154-S293 and domain D3 E294-P355); source: cloned, expressed and purified as described (Chiliveri et al, 2017)
T6 sequence (looked up): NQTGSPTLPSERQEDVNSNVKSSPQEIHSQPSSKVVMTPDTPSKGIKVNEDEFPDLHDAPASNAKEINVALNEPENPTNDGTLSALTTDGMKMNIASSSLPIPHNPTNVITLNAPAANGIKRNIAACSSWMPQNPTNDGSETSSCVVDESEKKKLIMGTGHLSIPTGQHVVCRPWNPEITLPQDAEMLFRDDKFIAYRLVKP

[11] = target: T7, DRB7.2N (Arabidopsis thaliana, UniProt F4JHB3 1-81); test: EMSA; 20 uM protein, 750 nM RNA; EMSA: 50 mM potassium phosphate pH 7.0, 50 mM NaCl, 50 mM Na2SO4, 2 mM DTT; 40 bp RNA at 750 nM, 30 min, room temperature; 32P 80 bp dsRNA at 1 nM, 1 h, 4 C; conditions: protein: recombinant, tags: His6 (pET28a), label: none (SYBR Gold stain), 1 nt 3' overhang (C) on complementary strand
T7 sequence: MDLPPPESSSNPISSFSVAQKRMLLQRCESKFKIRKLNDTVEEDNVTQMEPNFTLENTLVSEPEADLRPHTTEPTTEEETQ

[12] = target: T8, DRB7.2;DRB4 (Arabidopsis thaliana;Arabidopsis …, UniProt F4JHB3;Q8H1D4 1-190;1-355, |); test: EMSA; apparent Kd; Hill 2.05±0.65; EMSA: 50 mM potassium phosphate pH 7.0, 50 mM NaCl, 50 mM Na2SO4, 2 mM DTT; 40 bp RNA at 750 nM, 30 min, room temperature; 32P 80 bp dsRNA at 1 nM, 1 h, 4 C; conditions: protein: recombinant;recombinant, tags: His6 tag with TEV cleavage (pETtrx-1b);, label: none (SYBR Gold stain), 1 nt 3' overhang (C) on complementary strand
T8 sequence 1: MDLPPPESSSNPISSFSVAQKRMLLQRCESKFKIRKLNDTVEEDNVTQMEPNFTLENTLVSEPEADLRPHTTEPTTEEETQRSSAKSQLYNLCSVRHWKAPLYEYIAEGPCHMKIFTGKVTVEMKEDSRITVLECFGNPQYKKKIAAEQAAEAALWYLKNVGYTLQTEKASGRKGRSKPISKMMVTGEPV
T8 sequence 2: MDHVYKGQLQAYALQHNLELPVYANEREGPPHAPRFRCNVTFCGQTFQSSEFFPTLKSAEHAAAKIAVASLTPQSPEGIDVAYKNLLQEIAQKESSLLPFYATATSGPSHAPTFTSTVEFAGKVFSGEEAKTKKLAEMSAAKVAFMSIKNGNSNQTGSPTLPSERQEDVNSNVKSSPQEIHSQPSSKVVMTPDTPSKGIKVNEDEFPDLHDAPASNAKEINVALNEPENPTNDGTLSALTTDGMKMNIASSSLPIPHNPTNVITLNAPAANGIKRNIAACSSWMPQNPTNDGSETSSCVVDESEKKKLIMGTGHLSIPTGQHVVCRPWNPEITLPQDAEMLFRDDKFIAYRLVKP

[13] = target: T9, DRB4 (Arabidopsis thaliana, UniProt Q8H1D4 1-355); test: EMSA; apparent Kd; Hill 2.44±0.45; EMSA: 50 mM potassium phosphate pH 7.0, 50 mM NaCl, 50 mM Na2SO4, 2 mM DTT; 40 bp RNA at 750 nM, 30 min, room temperature; 32P 80 bp dsRNA at 1 nM, 1 h, 4 C; conditions: protein: recombinant, label: none (SYBR Gold stain), 1 nt 3' overhang (C) on complementary strand
T9 sequence: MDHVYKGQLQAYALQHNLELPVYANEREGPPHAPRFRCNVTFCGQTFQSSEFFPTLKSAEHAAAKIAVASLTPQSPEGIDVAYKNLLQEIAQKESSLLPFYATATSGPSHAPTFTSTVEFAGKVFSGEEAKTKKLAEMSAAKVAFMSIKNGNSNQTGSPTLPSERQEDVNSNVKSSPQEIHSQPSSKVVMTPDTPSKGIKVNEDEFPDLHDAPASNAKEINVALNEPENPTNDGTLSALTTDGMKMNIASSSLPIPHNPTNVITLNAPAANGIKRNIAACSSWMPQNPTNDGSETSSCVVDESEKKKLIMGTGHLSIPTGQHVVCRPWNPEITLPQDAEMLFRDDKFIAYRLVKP

[14] = target: T2, DRB7.2; test: EMSA; apparent Kd; Hill 2.68±0.77; EMSA: 50 mM potassium phosphate pH 7.0, 50 mM NaCl, 50 mM Na2SO4, 2 mM DTT; 40 bp RNA at 750 nM, 30 min, room temperature; 32P 80 bp dsRNA at 1 nM, 1 h, 4 C; conditions: protein: recombinant, tags: His6 tag with TEV cleavage (pETtrx-1b), label: none (SYBR Gold stain), 1 nt 3' overhang (C) on complementary strand
[15] = target: T1, DRB4D3; test: EMSA; 20 uM protein, 750 nM RNA; also higher concentrations; EMSA: 50 mM potassium phosphate pH 7.0, 50 mM NaCl, 50 mM Na2SO4, 2 mM DTT; 40 bp RNA at 750 nM, 30 min, room temperature; 32P 80 bp dsRNA at 1 nM, 1 h, 4 C; conditions: protein: recombinant, label: none (SYBR Gold stain), 1 nt 3' overhang (C) on complementary strand

B1: 80 bp dsRNA (dsRNA)
RNA 1: GGGUGCUGUUUCUCGUGUUCGUGUUCGUUUCUCUUCUCUUGUCCUUGUUCUGUUCUCCUUUGUUCGUUCCUGUUCCCCUU
RNA 2: AAGGGGAACAGGAACGAACAAAGGAGAACAGAACAAGGACAAGAGAAGAGAAACGAACACGAACACGAGAAACAGCACCC
- binding result [1]: no binding
- binding result [2]: binds
- binding result [3]: binds
- binding result [4]: binds

B2: DRB4D3 (294-355) (domain or fragment, A. thaliana, UniProt Q8H1D4 294-355, looked up)
chain: ETSSCVVDESEKKKLIMGTGHLSIPTGQHVVCRPWNPEITLPQDAEMLFRDDKFIAYRLVKP
notes: DRB4, A. thaliana, UniProt Q8H1D4, residues 294-355 (E294-P355); Isotope labelled (15N, 13C, 2H) or perdeuterated for NMR; source: cloned, expressed and purified as described (Chiliveri et al, 2017)
- stoichiometry N [5]: 1
- Kd [6]: 9.43 nM and ~9.5 nM
- stoichiometry N [6]: 0.81
- Kd [7]: 2.2 ± 1.2 nM
- Kd [8]: 2.84 ± 1.15 nM
- stoichiometry N [8]: 0.95

Binder: B3
- Kd [9]: 3.1 ± 1.5 nM
- Kd [10]: 2.8 ± 1.6 nM

B4: 40 bp RNA (pre-siRNA) (dsRNA)
RNA 1: AACAAGCGAAUGAGUCAUUCAUCCUAAGUCUGCAUAAAGU
RNA 2: ACUUUAUGCAGACUUAGGAUGAAUGACUCAUUCGCUUGUUC
modifications: 5'-phosphate on guide strand
- binding result [11]: no binding
- Kd [12]: 1020 ± 170 nM
- Kd [13]: 3.6 ± 0.31 µM
- Kd [14]: 2280 ± 270 nM
- binding result [15]: no binding

Binder: B5
- stoichiometry N [7]: 0.8
